# Data as given in publication PMC11310195.
# Several values for one entry are separate records, joined by “and”; a condition that tells them apart may be missing. Identical values can stand only once.
# Assays:
# [1] = biological target: 43S pre-initiation complex (40S + eIFs 1, 1A, 5, 3j, eIF2-TC and eIF3) (human) (UniProt P23396); assay: native gel or EMSA; 100 nM fluorescein-labeled Pdcd4 with 250 nM 40S, 43S or 48S; 37 °C 10 min; 20 mM Tris-acetate pH 7.5, 70 mM KCl, 2 mM MgCl2, 0.1 mM spermidine, 1 mM DTT, 10% glycerol, 0.1 mg/ml BSA, 0.5 mM ATP-Mg; 1% agarose gel in THEM buffer, 4 °C
# [2] = biological target: 40S small ribosomal subunit (salt-washed) (human) (UniProt P23396); assay: fluorescence polarisation; fluorescence anisotropy competition assay in solution: 20 nM FL-Pdcd4-NTD + 50 nM 40S competed off by 0-1000 nM unlabeled Pdcd4 or its variants; Kd of the labeled NTD set to 5 nM; same buffer as the native gel assay; 10 min at 37 C, then over 20 min at room temperature
# [3] = biological target: fluorescein-labelled Pdcd4 N-terminal domain (residues 1-156) (human) (UniProt Q53EL6); assay: fluorescence polarisation; fluorescence anisotropy binding assay: 20 nM FL-Pdcd4-NTD, 40S titrated, with or without eIFs (1 uM eIFs 1, 1A, 5, 550 nM eIF2-TC and eIF3); 20 mM Tris-acetate pH 7.5, 70 mM KCl, 2 mM MgCl2, 0.1 mM spermidine, 1 mM DTT, 10% glycerol, 0.1 mg/ml BSA, 0.5 mM ATP-Mg; 37 C 10 min, then over 20 min at room temperature; fraction bound fitted with a quadratic equation
# [4] = biological target: 40S small ribosomal subunit (salt-washed) (human) (UniProt P23396); assay: fluorescence polarisation; anisotropy binding: 20 nM FL-Pdcd4-NTD with various amounts of 40S in the presence of saturating eIF1 and eIF1A
# [5] = biological target: 43S pre-initiation complex (40S + eIFs 1, 1A, 5, 3j, eIF2-TC and eIF3) (human) (UniProt P23396); assay: fluorescence polarisation; anisotropy binding: 20 nM FL-Pdcd4-NTD with various amounts of 40S, in the absence or presence of 43S components (1 μM eIFs 1, 1A, 5, 550 nM eIF2-TC and eIF3); buffer of the native gel assay
# [6] = biological target: 40S small ribosomal subunit (salt-washed) (human) (UniProt P23396); assay: fluorescence polarisation; anisotropy competition: 20 nM FL-Pdcd4-NTD + 50 nM 40S competed off by unlabeled Pdcd4 or its variants; 37 °C 10 min, then over 20 min at room temperature; buffer of the native gel assay
Substance,Ki [2],Kd [3] [nM],further results
"fluorescently modified recombinant Pdcd4 (FL-Pdcd4), full length (from UniProt Q53EL6 1-469) (natural protein)",,,percent binding compared to the 40S lane [1]: < 20%
"wild-type Pdcd4 (residues 1-469), unlabeled (from UniProt Q53EL6 1-469) (natural protein)",24.7 nM and 21 nM and 23.3 nM,,
Pdcd4 V123A/W124A (from UniProt Q53EL6 1-469) (natural protein),864 nM and 791 nM and 828 nM,,
human 40S small ribosomal subunit (from UniProt P23396 1-243) (complex),,5,
"fluorescein-labeled Pdcd4-NTD (FL-Pdcd4-NTD, residues 1-156) (from UniProt Q53EL6 1-156) (domain or fragment)",,,fold reduction in affinity (against the 40S alone) [4]: > 10 fold; fold reduction in affinity (against the 40S alone) [5]: > 100 fold; percent binding compared to the 40S lane [1]: < 20%
"43S pre-initiation complex (40S with eIF1, eIF1A, eIF5, eIF2 ternary complex and eIF3) (from UniProt P23396 1-243; P41567 1-113; P47813 1-144; P55010 1-431; P55884 158-814; O75821 1-320; Q13347 1-325; O75822 1-258)",,3000,
40S subunit with saturating eIF1 and eIF1A (from UniProt P23396 1-243; P41567 1-113; P47813 1-144) (complex),,71,
"Pdcd4 (programmed cell death 4), wild type, residues 1-469 (from UniProt Q53EL6 1-469) (natural protein)",,,Ki [6]: 23 nM
Pdcd4 K114A/K115A (from UniProt Q53EL6 1-469) (natural protein),1600 nM and 1380 nM and 1490 nM,,
"Pdcd4-NTD (residues 1-156), unlabeled (from UniProt Q53EL6 1-156) (domain or fragment)",21.2 nM and 20.3 nM and 20.1 nM,,Ki [6]: 21 nM
